Our source for the Kd, koff and kon values is patent US20150104448A1 (TRUE NORTH THERAPEUTICS, published 2015).

Assay [1] concerns the target T1, Inactive-C1s (Homo sapiens, UniProt P09871).
T1 construct: proenzyme (pro-C1s); also called pro-C1s
T1 sequence (single chain, looked up): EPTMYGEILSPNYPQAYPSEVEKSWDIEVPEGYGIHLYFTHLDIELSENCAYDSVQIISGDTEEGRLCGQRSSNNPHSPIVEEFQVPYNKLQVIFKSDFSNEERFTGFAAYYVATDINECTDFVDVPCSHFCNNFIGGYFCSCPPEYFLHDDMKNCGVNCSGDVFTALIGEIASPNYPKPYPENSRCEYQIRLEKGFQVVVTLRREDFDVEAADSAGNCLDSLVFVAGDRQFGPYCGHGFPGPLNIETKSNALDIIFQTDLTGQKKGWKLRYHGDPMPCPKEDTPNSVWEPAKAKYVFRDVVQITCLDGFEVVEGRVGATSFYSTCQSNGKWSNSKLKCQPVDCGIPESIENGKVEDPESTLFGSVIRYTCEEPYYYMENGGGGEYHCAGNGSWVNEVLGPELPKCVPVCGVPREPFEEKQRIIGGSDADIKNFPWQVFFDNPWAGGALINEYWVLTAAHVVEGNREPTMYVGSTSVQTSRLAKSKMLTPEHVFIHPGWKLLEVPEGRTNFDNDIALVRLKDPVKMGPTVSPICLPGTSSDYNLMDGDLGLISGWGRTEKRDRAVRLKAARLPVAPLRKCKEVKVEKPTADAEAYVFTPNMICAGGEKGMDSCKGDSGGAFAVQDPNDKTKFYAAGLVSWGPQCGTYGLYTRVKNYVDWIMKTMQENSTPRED
Description: kinetic binding measurement, method not stated; Table 10, pro-C1s.

In assay [2] the target is T2, purified human activated C1s protein, two-chain form (Homo sapiens, UniProt P09871 16-688).
T2 construct: Also used here for C1s acting in human serum assays; also called human C1s; active C1s
T2 sequence: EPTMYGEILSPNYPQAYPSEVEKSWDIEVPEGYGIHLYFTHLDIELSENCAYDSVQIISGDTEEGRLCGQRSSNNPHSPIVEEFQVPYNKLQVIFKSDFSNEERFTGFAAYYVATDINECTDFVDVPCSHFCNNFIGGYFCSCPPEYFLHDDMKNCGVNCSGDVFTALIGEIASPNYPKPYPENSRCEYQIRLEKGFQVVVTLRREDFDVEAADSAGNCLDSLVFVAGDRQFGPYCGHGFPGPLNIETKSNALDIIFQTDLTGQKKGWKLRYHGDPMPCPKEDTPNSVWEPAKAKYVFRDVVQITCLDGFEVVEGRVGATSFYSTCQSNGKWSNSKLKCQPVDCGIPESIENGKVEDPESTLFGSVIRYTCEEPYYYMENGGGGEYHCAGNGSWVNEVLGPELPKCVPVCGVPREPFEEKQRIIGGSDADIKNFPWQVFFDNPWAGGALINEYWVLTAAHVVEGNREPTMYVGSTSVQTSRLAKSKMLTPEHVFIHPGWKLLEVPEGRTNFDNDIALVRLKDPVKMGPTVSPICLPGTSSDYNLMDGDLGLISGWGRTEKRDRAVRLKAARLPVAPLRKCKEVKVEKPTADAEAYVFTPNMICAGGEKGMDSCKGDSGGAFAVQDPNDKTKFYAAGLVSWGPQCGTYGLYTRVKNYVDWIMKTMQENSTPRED
Description: kinetic binding measurement, method not stated; Table 9, activated C1s.

B1: VH1/Vk2 (antibody, V domains shown)
VH: EVMLVESGGGLVKPGGSLRLSCAASGFTFSNYAMSWVRQAPGKGLEWVATISSGGSHTYYLDSVKGRFTISRDNSKDTLYLQMSSLRAEDTALYYCARLFTGYAMDYWGQGTSVTVSS
VL: QIVLTQSPATLSLSPGERATMSCTASSSVSSSYLHWYQQKPGKAPKLWIYSTSNLASGVPSRFSGSGSGTDYTLTISSLQPEDFATYYCHQYYRLPPITFGQGTKLEIK
notes: member of group m7; also called VH1/Vκ2; VH variant 1 + Vk variant 2
Turning to B1, in assay [1], binding was put at a Kd of 0.229 nM; the koff (as a rule, the first-order rate constant of dissociation) was found to be 0.000249 s⁻¹; the kon (commonly the rate constant with which the complex forms) was determined as 1.09e+06 M⁻¹ s⁻¹. In assay [2], the affinity, expressed as Kd, was 0.262 nM; the koff was 0.000274 s⁻¹; the on-rate (kon) is 1.05e+06 M⁻¹ s⁻¹.

B2: VH3/Vk1 (antibody, V domains shown)
VH: EVMLVESGGGLVKPGGSLRLSCAASGFTFSNYAMSWVRQAPGKGLEWVATISSGGSHTYYLDSVKGRFTISRDNSKDTLYLQMSSLRAEDTALYYCARLFTGYAMDYWGQGTSVTVSS
VL: QIVLTQSPAILSLSPGERATMSCTASSSVSSSYLHWYQQKPGKAPKLWIYSTSNLASGVPSRFSGSGSGTFYTLTISSLQAEDFATYYCHQYYRLPPITFGQGTKLEIK
notes: member of group m7; also called VH3/Vκ1; VH variant 3 + Vk variant 1
For the molecule B2, in assay [1], the Kd (usually the concentration at which binding is half-saturated) is 0.252 nM, the koff came out at 0.000255 s⁻¹ and the kon was determined as 1.02e+06 M⁻¹ s⁻¹. In addition, in assay [2], the Kd was 0.246 nM, the koff was determined as 0.000254 s⁻¹ and the kon was 1.03e+06 M⁻¹ s⁻¹.

B3: VH2/Vk1 (antibody, V domains shown)
VH: EVMLVESGGGLVKPGGSLRLSCAASGFTFSNYAMSWVRQAPGKGLEWVATISSGGSHTYYLDSVKGRFTISRDNSKDTLYLQMNSLRAEDTALYYCARLFTGYAMDYWGQGTLVTVSS
VL: QIVLTQSPAILSLSPGERATMSCTASSSVSSSYLHWYQQKPGKAPKLWIYSTSNLASGVPSRFSGSGSGTFYTLTISSLQAEDFATYYCHQYYRLPPITFGQGTKLEIK
notes: member of group m7; also called VH2/Vκ1; VH variant 2 + Vk variant 1
With B3, in assay [1], binding was put at a Kd of 0.252 nM, the koff was 0.000262 s⁻¹ and the kon came out at 1.04e+06 M⁻¹ s⁻¹. In assay [2], this molecule returned a dissociation constant Kd of 0.256 nM, a koff of 0.000274 s⁻¹ and a kon of 1.07e+06 M⁻¹ s⁻¹.

B4: VH1/Vk1 (antibody, V domains shown)
VH: EVMLVESGGGLVKPGGSLRLSCAASGFTFSNYAMSWVRQAPGKGLEWVATISSGGSHTYYLDSVKGRFTISRDNSKDTLYLQMSSLRAEDTALYYCARLFTGYAMDYWGQGTSVTVSS
VL: QIVLTQSPAILSLSPGERATMSCTASSSVSSSYLHWYQQKPGKAPKLWIYSTSNLASGVPSRFSGSGSGTFYTLTISSLQAEDFATYYCHQYYRLPPITFGQGTKLEIK
notes: member of group m7; also called VH1/Vκ1; VH variant 1 + Vk variant 1
In assay [1], B4 displayed a Kd of 0.191 nM, an off-rate constant (koff) of 0.000198 s⁻¹ and a kon of 1.04e+06 M⁻¹ s⁻¹. In assay [2], this molecule showed a dissociation constant Kd of 0.235 nM, a koff of 0.000228 s⁻¹ and a kon of 973000 M⁻¹ s⁻¹.

B5: VH2/Vk2 (antibody, V domains shown)
VH: EVMLVESGGGLVKPGGSLRLSCAASGFTFSNYAMSWVRQAPGKGLEWVATISSGGSHTYYLDSVKGRFTISRDNSKDTLYLQMNSLRAEDTALYYCARLFTGYAMDYWGQGTLVTVSS
VL: QIVLTQSPATLSLSPGERATMSCTASSSVSSSYLHWYQQKPGKAPKLWIYSTSNLASGVPSRFSGSGSGTDYTLTISSLQPEDFATYYCHQYYRLPPITFGQGTKLEIK
notes: member of group m7; also called VH2/Vκ2; VH variant 2 + Vk variant 2
Turning to B5, in assay [1], the Kd was determined as 0.271 nM, the dissociation rate constant (koff) turned out to be 0.000269 s⁻¹ and the kon was determined as 993000 M⁻¹ s⁻¹. Further, in assay [2], binding was characterised by a dissociation constant (Kd) of 0.273 nM, the koff worked out at 0.00028 s⁻¹ and the kon is 1.03e+06 M⁻¹ s⁻¹.

B6: VH1/Vk3 (antibody, V domains shown)
VH: EVMLVESGGGLVKPGGSLRLSCAASGFTFSNYAMSWVRQAPGKGLEWVATISSGGSHTYYLDSVKGRFTISRDNSKDTLYLQMSSLRAEDTALYYCARLFTGYAMDYWGQGTSVTVSS
VL: QIVLTQSPATLSLSPGERATLSCTASSSVSSSYLHWYQQKPGKAPKLWIYSTSNLASGVPSRFSGSGSGTDYTLTISSLQPEDFATYYCHQYYRLPPITFGQGTKLEIK
notes: member of group m7; also called VH1/Vκ3; VH variant 1 + Vk variant 3
In assay [1], B6 gave a Kd of 0.303 nM, a koff of 0.000285 s⁻¹ and an association rate constant (kon) of 941000 M⁻¹ s⁻¹. In assay [2], this molecule had a dissociation constant Kd of 0.376 nM, a koff of 0.000343 s⁻¹ and a kon of 914000 M⁻¹ s⁻¹.

B7: VH4/Vk1 (antibody, V domains shown)
VH: EVQLVESGGGLVKPGGSLRLSCAASGFTFSNYAMSWVRQAPGKGLEWVATISSGGSHTYYLDSVKGRFTISRDNSKNTLYLQMNSLRAEDTALYYCARLFTGYAMDYWGQGTLVTVSS
VL: QIVLTQSPAILSLSPGERATMSCTASSSVSSSYLHWYQQKPGKAPKLWIYSTSNLASGVPSRFSGSGSGTFYTLTISSLQAEDFATYYCHQYYRLPPITFGQGTKLEIK
notes: member of group m7; also called VH4/Vκ1; VH variant 4 + Vk variant 1
Take B7: in assay [1], the Kd amounted to 0.291 nM, the koff was 0.000319 s⁻¹ and the kon is 1.1e+06 M⁻¹ s⁻¹. In assay [2], this molecule gave a Kd of 0.228 nM, a koff of 0.000271 s⁻¹ and a kon of 1.19e+06 M⁻¹ s⁻¹.

B8: VH4/Vk2 (antibody, V domains shown)
VH: EVQLVESGGGLVKPGGSLRLSCAASGFTFSNYAMSWVRQAPGKGLEWVATISSGGSHTYYLDSVKGRFTISRDNSKNTLYLQMNSLRAEDTALYYCARLFTGYAMDYWGQGTLVTVSS
VL: QIVLTQSPATLSLSPGERATMSCTASSSVSSSYLHWYQQKPGKAPKLWIYSTSNLASGVPSRFSGSGSGTDYTLTISSLQPEDFATYYCHQYYRLPPITFGQGTKLEIK
notes: member of group m7; also called VH4/Vκ2; VH variant 4 + Vk variant 2
Turning to B8, in assay [1], binding was characterised by a dissociation constant (Kd) of 0.262 nM, the koff came to 0.000263 s⁻¹ and the kon stood at 1.01e+06 M⁻¹ s⁻¹. For the same molecule, in assay [2], the affinity, expressed as Kd, was 0.262 nM; the dissociation rate constant (koff) is 0.000264 s⁻¹; the association rate constant (kon) came to 1e+06 M⁻¹ s⁻¹.

B9: VH2/Vk3 (antibody, V domains shown)
VH: EVMLVESGGGLVKPGGSLRLSCAASGFTFSNYAMSWVRQAPGKGLEWVATISSGGSHTYYLDSVKGRFTISRDNSKDTLYLQMNSLRAEDTALYYCARLFTGYAMDYWGQGTLVTVSS
VL: QIVLTQSPATLSLSPGERATLSCTASSSVSSSYLHWYQQKPGKAPKLWIYSTSNLASGVPSRFSGSGSGTDYTLTISSLQPEDFATYYCHQYYRLPPITFGQGTKLEIK
notes: member of group m7; also called VH2/Vκ3; VH variant 2 + Vk variant 3
In assay [1], B9 registered a Kd of 0.284 nM, a koff of 0.000275 s⁻¹ and a kon of 968000 M⁻¹ s⁻¹. For the same molecule, in assay [2], the affinity, expressed as Kd, was 0.296 nM; the koff came out at 0.000281 s⁻¹; the kon stood at 948000 M⁻¹ s⁻¹.

B10: VH4/Vk3 (antibody, V domains shown)
VH: EVQLVESGGGLVKPGGSLRLSCAASGFTFSNYAMSWVRQAPGKGLEWVATISSGGSHTYYLDSVKGRFTISRDNSKNTLYLQMNSLRAEDTALYYCARLFTGYAMDYWGQGTLVTVSS
VL: QIVLTQSPATLSLSPGERATLSCTASSSVSSSYLHWYQQKPGKAPKLWIYSTSNLASGVPSRFSGSGSGTDYTLTISSLQPEDFATYYCHQYYRLPPITFGQGTKLEIK
notes: member of group m7; also called VH4/Vκ3; VH variant 4 + Vk variant 3
In assay [1], B10 returned a Kd of 0.278 nM, a koff of 0.000306 s⁻¹ and a kon of 1.1e+06 M⁻¹ s⁻¹. In assay [2], this molecule showed a Kd of 0.298 nM, a koff of 0.00031 s⁻¹ and a kon of 1.04e+06 M⁻¹ s⁻¹.

B11: VH3/Vk3 (antibody, V domains shown)
VH: EVMLVESGGGLVKPGGSLRLSCAASGFTFSNYAMSWVRQAPGKGLEWVATISSGGSHTYYLDSVKGRFTISRDNSKDTLYLQMSSLRAEDTALYYCARLFTGYAMDYWGQGTSVTVSS
VL: QIVLTQSPATLSLSPGERATLSCTASSSVSSSYLHWYQQKPGKAPKLWIYSTSNLASGVPSRFSGSGSGTDYTLTISSLQPEDFATYYCHQYYRLPPITFGQGTKLEIK
notes: member of group m7; also called VH3/Vκ3; VH variant 3 + Vk variant 3
In assay [1], B11 gave a dissociation constant Kd of 0.331 nM, a dissociation rate constant (koff) of 0.000351 s⁻¹ and a kon of 1.06e+06 M⁻¹ s⁻¹. In addition, in assay [2], binding was characterised by a dissociation constant (Kd) of 0.335 nM, the koff is 0.00036 s⁻¹ and the association rate constant (kon) worked out at 1.08e+06 M⁻¹ s⁻¹.
